Reference: article PMC12237041

T1: synthetic peptide mimicking the IgA1 hinge region, …-NH2 (human)
T1 sequence (peptide, C-terminal amide): VTVPSPVPSTPAR


Assays:
[1] = target: T1, synthetic peptide mimicking the IgA1 hinge region, …-NH2 (human)
[2] = target: IgA purified from human plasma (human); test: SEC; Superdex 200 10/300 GL; independent runs of plasma IgA, of inactive IgAse1–7 + E540A and of a preincubated mixture of both

| Binder | cleavage of the hinge peptide after overnight incubation at 37 °C, MALDI-TOF mass spectrometry [1] [%] | Kd [2] [µM] |
| --- | --- | --- |
| IgAse1–4 (enzyme) MASKPDIKVGDYVKMGVYNNASILWRCVSIDNNGPLMLADKIVDTLAYDAKTNDNSNSKSHSRSYKRDDYGSNYWKDSNMRSWLNSTAAEGKVDWLCGNPPKDGYVSGVGAYNEKAGFLNAFSKSEIAAMKTVTQRSLVSHPEYNKGIVDGDANSDLLYYTDISEAVANYDSSYFETTTEKVFLLDVKQANAVWKNLKGYYVAYNNDGMAWPYWLRTPVTDCNHDMRYISSSGQVGRYAPWYSDLGVRPAFYLDSEYFVTTSGSGSQSSPYIGSAPNKQEDDYTISEPAEDANPDWNVSTEQSIQLTLGPWYSNDGKYSNPTIPVYTIQKTRSDTENMVVVVCGEGYTKSQQGKFINDVKRLWQDAMKYEPYRSYADRFNVYALCTASESTFDNGGSTFFDVIVDKYNSPVISNNLHGSQWKNHIFERCIGPEFIEKIHDAHIKKKCDPNTIPSGSEYEPYYYVHDYIAQFAMVVNTKSDFGGAYNNREYGFHYFISPSDSYRASKTFAHEFGHGLLGLGDEYSNGYLLDDKELKSLNLSSVEDPEKIKWRQLLGFRNTYTCRNAYGSKMLVSSYECIMRDTNYQFCEVCRLQGFKRMSQLVKDVDLYVATPEVKEYTGAYSKPSDFTDLETSSYYNYTYNRNDRLLSGNSKSRFNTNMNGKKIELRTVIQNISDKNARQLKFKMWIKHSDGSVATDSSGNPLQTVQTFDIPVWNDKANFWPLGALDHIKSDFNSGLKSCSLIYQIPSDAQLKSGDTVAFQVLDENGNVLADDNTETQRYTTVSIQYKFEDGSEIPNTAGGTFTVPYGTKLDLTPAKTLYDYEFIKVDGLNKPIVSDGTVVTYYYKN | < 1 |  |
| IgAse1–7 + E540A (domain or fragment) MASKPDIKVGDYVKMGVYNNASILWRCVSIDNNGPLMLADKIVDTLAYDAKTNDNSNSKSHSRSYKRDDYGSNYWKDSNMRSWLNSTAAEGKVDWLCGNPPKDGYVSGVGAYNEKAGFLNAFSKSEIAAMKTVTQRSLVSHPEYNKGIVDGDANSDLLYYTDISEAVANYDSSYFETTTEKVFLLDVKQANAVWKNLKGYYVAYNNDGMAWPYWLRTPVTDCNHDMRYISSSGQVGRYAPWYSDLGVRPAFYLDSEYFVTTSGSGSQSSPYIGSAPNKQEDDYTISEPAEDANPDWNVSTEQSIQLTLGPWYSNDGKYSNPTIPVYTIQKTRSDTENMVVVVCGEGYTKSQQGKFINDVKRLWQDAMKYEPYRSYADRFNVYALCTASESTFDNGGSTFFDVIVDKYNSPVISNNLHGSQWKNHIFERCIGPEFIEKIHDAHIKKKCDPNTIPSGSEYEPYYYVHDYIAQFAMVVNTKSDFGGAYNNREYGFHYFISPSDSYRASKTFAHAFGHGLLGLGDEYSNGYLLDDKELKSLNLSSVEDPEKIKWRQLLGFRNTYTCRNAYGSKMLVSSYECIMRDTNYQFCEVCRLQGFKRMSQLVKDVDLYVATPEVKEYTGAYSKPSDFTDLETSSYYNYTYNRNDRLLSGNSKSRFNTNMNGKKIELRTVIQNISDKNARQLKFKMWIKHSDGSVATDSSGNPLQTVQTFDIPVWNDKANFWPLGALDHIKSDFNSGLKSCSLIYQIPSDAQLKSGDTVAFQVLDENGNVLADDNTETQRYTTVSIQYKFEDGSEIPNTAGGTFTVPYGTKLDLTPAKTLYDYEFIKVDGLNKPIVSDGTVVTYYYKNKNEEHTHNLTLVAAKAATCTTAGNSAYYTCDGCDKWFADATGSVEITDKTSVKIPAPGHTAGTEWKSDDTNHWHECTVAGCGVIIESTKSAHTAGEWIVDTPATATTAGTKHKECTVCHRVLETQPIPSTGTELKIIAGDNQIYNKASGSDVTITCNGDFAKFTGIKVDGSVVDSSNYTAVSGSTVLTLKASYLGTLTDGSHTITFVYTDGEANANLTVRTAGSGHIHDYGTEWKSNADNHWHECNCGDKKDEAAHSFKWVVDKEATATKKGSKHEECKICGYKRSAVEI |  | > 10 |
